The source of these data is patent US20110262447A1.

Read-outs that look alike come from different tables or passages of the source.

Test [1] addresses T1, FRHSVV peptide, the common epitope of mutant p53 (biotin conjugate) (human).
Test [2] has as its target T1, FRHSVV peptide, the common epitope of …. Description: BIAcore SPR. On the technique in general: Surface plasmon resonance follows binding to a sensor surface in real time, without labels.

B1: E6 scFv (scFv)
scFv: VQLLESGGGLVQPGGSLRLSCAASGFTFSGYWMHWVRQAPGKGLEWVSEISGSGDSTHYGDSVKGRFTISRDNSKNTLYLQMNSLRAEDTAVYYCARGRNGSLDYWGQGTLVTVSSGSAGGGGSGGGGSGGGGSDIVLTQPPSASGTPGQRVTISCSGSSSNIGAGYDVHWYQQLPGTAPKLLIYGNTNRPSGVSDRFSGSKSGTSASLAISGLRSEDEADYYCQSFDSTLSGPVFGGGTKVTV
In turn, B1 yielded a Kd in test [1] of 4.6e-05 nM.

B2: F2 scFv (scFv)
scFv: VQLLESGGGLVQPGGSLRLSCAASGFTFSGYWMHWVRQAPGKGLEWVSEISGSGDSTHYGDSVKGRFTISRDNSKNTLYLQMNSLRAEDTAVYYCARGRNGSLDYWGQGTLVTVSSGSAGGGGSGGGGSGGGGSDIVLTQPPSASGTPGQRVTISCSGTSSNIGADYDVHWYQQLPGKAPKLLIYDNNKRPSGVSDRFSGSKSGTSASLAISGLRSEDEADYYCAAWDSSLSSVVFGGGTQLTV
In turn, B2 returned a Kd in test [1] of 11 nM.

B3: A6 scFv (scFv)
scFv: VQLLESGGGLVQPGGSPRLSCAASGFTFSGYWMHWVRQAPGKGLEWVSEISGSGDSTHYGDSVKGRFTISRDNSKNTLYLQMNSLRAEDTAVYYCARGRNGSLDYWGQGTLVTVSSGSAGGGGSGGGGSGGGGSDIVLTQPPSASGTPGQRVTISCTGGRFNIGDYAVNWYQQLPGKAPKLLIYDNDRRPSGVSDRFSGSKSGTSASLAISGLRSEDEADYYCAAWDDSLDGLVFGGGTQLTV
B3 came in with a Kd in test [2] of 23 nM.

Usually Kd stands for the free concentration of one partner at which half of the binding sites on the other are occupied at equilibrium, for simple one-to-one binding.
